Target: αvβ3 integrin on rat smooth muscle cells (RSMC) (rat)
Test: cell-based or functional assay

stimulation of RSMC migration (Boyden chamber chemotaxis) | IC50 of inhibition of VN-induced migration of RSMC (Boyden chamber chemotaxis) | Binder
3 fold |  | IQEGEEGRPKDDR [peptide D2A, synthetic peptide of domain 2 of human uPAR (aa130-142)]
 | 0.01 to 0.02 pM | IQEGAAGRPKDDR [peptide D2A-Ala (D2A with the two glutamic acids of GEEG changed into alanines)]

From patent US20080280833A1 (published 2008)
